Self-cleavage data for 167 variants are collected here from the RNAGym collection of RNA variant scans (doi:10.7554/elife.80360).

To fix the notation:
B1: Hammerhead Ribozyme (parent)
chain: ACCGGAUGUGCUUUCCGGUCUGAUGAGUCCGUGAGGACGAAACAG

The variants in this data set derive from B1. The data set can be described thus: self-cleavage, relative activity (ratio to wild type); higher = more cleavage; co-transcriptional.
As to C11A G35C, the self-cleavage was found to be 0.887. The figure for C11A G35A is 0.981; for C11A G35U it is 0.902. Consider C11G G45C, for which the self-cleavage is 0.962. The value for C11G G45U was 0.928; that for C11G G45A was 0.626.

As for C11U A41U, the self-cleavage stood at 0.278. The figure for C11U A41C is 0.337. In the case of C11U A41G, the self-cleavage worked out at 0.386. Take G10U U32G: the self-cleavage was 0.758. The value for G10U U32A was 0.896; that for G10U U32C was 0.694.

Take C11G G25C: the self-cleavage is 0.326. The value for C11G G25A was 0.288. The value for C11G G25U was 0.282; that for G10U U19A was 0.347; that for G10U U19G was 0.435.

On to G10U U19C, for which the self-cleavage came out at 0.665. The figure for C11U G25U is 0.318. The value for C11U G25A was 0.39. The value for C11U G25C was 0.248; that for C11G U12A was 1.1. C11G U12C: the self-cleavage was determined as 1.07. Take C11G U12G: the self-cleavage was 1.17. For C11U G31U, the self-cleavage turned out to be 1.35. The figure for C11U G31C is 0.937. The figure for C11U G31A is 1.13; for G10U U24C it is 1.13; for G10U U24G it is 1.16. For G10U U24A, the self-cleavage was 1.01. The value for C11A C30U was 0.87. The figure for C11A C30A is 1.1. Regarding C11A C30G, the self-cleavage amounted to 0.955. The value for C11U G33C was 0.659; that for C11U G33U was 1.04; that for C11U G33A was 0.95. The value for C11U A42U was 0.377; that for C11U A42C was 0.388; that for C11U A42G was 0.304. The value for C11G U21A was 0.735.

With C11G U21C, the self-cleavage turned out to be 0.987. The value for C11G U21G was 0.847; that for C11A A34C was 0.731; that for C11A A34U was 0.771. On to C11A A34G, for which the self-cleavage was determined as 0.996. The value for C11U C16G was 0.684. Consider C11U C16U, for which the self-cleavage is 0.817. The figure for C11U C16A is 0.886.

In the case of C11A C43G, the self-cleavage turned out to be 0.353.

As to C11A C43U, the self-cleavage is 0.616.

C11A C43A: the self-cleavage was 0.357. On to C11U A23C, for which the self-cleavage came to 0.277. The value for C11U A23G was 0.39; that for C11U A23U was 0.338.

On to C11A G18U, for which the self-cleavage turned out to be 1.04. As to C11A G18C, the self-cleavage came to 0.586. In the case of C11A G18A, the self-cleavage came out at 0.839.

Take C11A G27U: the self-cleavage was determined as 0.684.

As for C11A G27A, the self-cleavage worked out at 0.928. The figure for C11A G27C is 0.724. The figure for C11A A26U is 1.03.

C11A A26G: the self-cleavage was determined as 0.28. The value for C11A A26C was 0.725. The figure for C11U A44U is 0.497; for C11U A44C it is 0.474; for C11U A44G it is 1.35. The figure for G10U G22U is 0.351.

G10U G22A: the self-cleavage was determined as 0.354. The value for G10U G22C was 0.351; that for C11G A40C was 0.838. On to C11G A40U, for which the self-cleavage turned out to be 0.273. Consider C11G A40G, for which the self-cleavage stood at 0.413. For the variant C11G G18U, the self-cleavage was 0.725. The value for C11G G18C was 0.426; that for C11G G18A was 0.553. With C11G U14C, the self-cleavage was 0.867. The figure for C11G U14G is 0.74; for C11G U14A it is 1.25; for C11A G45C it is 0.97.

Regarding C11A G45U, the self-cleavage was determined as 1.05. C11A G45A: the self-cleavage came out at 0.778. The value for G10U G27C was 0.861; that for G10U G27U was 0.507.

As to G10U G27A, the self-cleavage amounted to 0.825.

On to C11A U13G, for which the self-cleavage stood at 0.853. The value for C11A U13C was 1.01; that for C11A U13A was 1.46. The value for G10U G33C was 1.1; that for G10U G33A was 1.13. The value for G10U G33U was 1.05; that for C11G C15G was 0.88. On to C11G C15U, for which the self-cleavage came to 0.986. The figure for C11G C15A is 0.824. Turning to G10U G35A, the self-cleavage was found to be 0.838.

Take G10U G35U: the self-cleavage worked out at 0.844. The value for G10U G35C was 0.685. The value for C11G A34C was 0.893. The figure for C11G A34G is 1.06. For C11G A34U, the self-cleavage came to 1.07. In the case of C11A G31U, the self-cleavage was 1.08. The figure for C11A G31C is 1.12; for C11A G31A it is 1.21; for C11G G33C it is 1. Regarding C11G G33A, the self-cleavage turned out to be 1.11. For the variant C11G G33U, the self-cleavage was found to be 1.53. The value for C11G C38A was 0.718. The value for C11G C38G was 0.692; that for C11G C38U was 1.09; that for C11A A42C was 0.284. The value for C11A A42U was 0.282. With C11A A42G, the self-cleavage was 0.241. The value for C11G U32A was 1.1; that for C11G U32G was 1.19; that for C11G U32C was 1.12. The figure for C11G G39C is 0.541. The figure for C11G G39U is 0.301. C11G G39A: the self-cleavage came to 0.253. In the case of C11U C30U, the self-cleavage is 0.736. The value for C11U C30A was 0.765; that for C11U C30G was 0.714; that for C11G U28A was 0.809.

Take C11G U28C: the self-cleavage is 1.13. For the variant C11G U28G, the self-cleavage was 0.849. For C11A C29A, the self-cleavage was found to be 0.783.

Consider C11A C29U, for which the self-cleavage came out at 1.08. The value for C11A C29G was 0.809. The value for C11U A37G was 1.12; that for C11U A37C was 0.987; that for C11U A37U was 0.665. The value for G10U U21A was 0.605. Turning to G10U U21C, the self-cleavage came out at 0.896. The value for G10U U21G was 0.578; that for C11A G17U was 1; that for C11A G17C was 0.506. The figure for C11A G17A is 0.717; for G10U U14G it is 0.709. As for G10U U14A, the self-cleavage came out at 0.822.

Turning to G10U U14C, the self-cleavage is 0.952. In the case of C11A U19A, the self-cleavage amounted to 0.358. Consider C11A U19C, for which the self-cleavage amounted to 0.603.

On to C11A U19G, for which the self-cleavage is 0.392. For the variant C11A C20U, the self-cleavage amounted to 0.681. Regarding C11A C20A, the self-cleavage was 0.452. The value for C11A C20G was 0.319. In the case of C11A C16G, the self-cleavage came to 1.1.

Take C11A C16U: the self-cleavage stood at 0.985. The figure for C11A C16A is 1.41; for C11G C43U it is 0.483. The value for C11G C43G was 0.29; that for C11G C43A was 0.311; that for G10U C43U was 0.537. The value for C11A U14G was 1.27; that for C11A U14A was 0.829.

In the case of C11A U14C, the self-cleavage worked out at 1.17. The figure for C11G C29A is 0.786.

Take C11G C29G: the self-cleavage stood at 0.82. The value for C11G C29U was 1.28; that for C11A A44G was 1.57; that for C11A A44C was 0.569. The figure for C11A A44U is 0.666; for G10U U12A it is 0.87. The figure for G10U U12C is 0.689.

Take G10U U12G: the self-cleavage worked out at 0.773. The value for C11G G17U was 0.589; that for C11G G17A was 0.511. The value for C11G G17C was 0.273; that for C11A G25C was 0.284.
